Like-named read-outs stand apart in the source and are kept apart here.
Tests used:
[1] = Pharmacokinetic profiles of anti-DDR1 mAbs in mice (ELISA of circulating antibody); type: in vivo, mouse; conditions: female C57B16JrJ mice, intraperitoneal, 10 mg/kg; for Cmax: circulating free and partially bound antibody
Description: To evaluate the pharmacokinetic profiles of anti-DDR1 mAbs, mAbs were administered intraperitoneally to female C57B16JrJ mice at a dose of 10 mg/kg, serial blood sampling was performed over time (FIG. 4A), and ELISA was used to measure circulating free and partially bound antibody. […] Further, as shown in FIG. 4E and Table S1 below, the maximal circulating (free and partially bound) concentrations of each mAb were higher than the concentration required to bind to target (as shown by the surface plasmon resonance results of mAb binding to mouse DDR1 extracellular domain; see Table S2 below). Moreover, the maximal circulating (free and partially bound) concentrations of mAb #9H1 WT IgG1 were higher than the in vitro concentration required to inhibit Collagen I-induced phosphorylation of DDR1 in T47D cells (see FIG. 1).

DDR1 = target: T1, DDR1 (Homo sapiens, UniProt Q08345); assay: Inhibition of collagen-induced DDR1 phosphorylation in T47D cells (Jess immunoassay); type: cell-based; conditions: serum-starved T47D cells, 2 h pretreatment, 50 μg/ml human collagen I for 90 minutes
T1 construct: Cultured T47D breast cancer cells were serum starved for 16 hours; endogenous in cells; host or cells: T47D breast cancer cells
T1 sequence (Q08345 19-913): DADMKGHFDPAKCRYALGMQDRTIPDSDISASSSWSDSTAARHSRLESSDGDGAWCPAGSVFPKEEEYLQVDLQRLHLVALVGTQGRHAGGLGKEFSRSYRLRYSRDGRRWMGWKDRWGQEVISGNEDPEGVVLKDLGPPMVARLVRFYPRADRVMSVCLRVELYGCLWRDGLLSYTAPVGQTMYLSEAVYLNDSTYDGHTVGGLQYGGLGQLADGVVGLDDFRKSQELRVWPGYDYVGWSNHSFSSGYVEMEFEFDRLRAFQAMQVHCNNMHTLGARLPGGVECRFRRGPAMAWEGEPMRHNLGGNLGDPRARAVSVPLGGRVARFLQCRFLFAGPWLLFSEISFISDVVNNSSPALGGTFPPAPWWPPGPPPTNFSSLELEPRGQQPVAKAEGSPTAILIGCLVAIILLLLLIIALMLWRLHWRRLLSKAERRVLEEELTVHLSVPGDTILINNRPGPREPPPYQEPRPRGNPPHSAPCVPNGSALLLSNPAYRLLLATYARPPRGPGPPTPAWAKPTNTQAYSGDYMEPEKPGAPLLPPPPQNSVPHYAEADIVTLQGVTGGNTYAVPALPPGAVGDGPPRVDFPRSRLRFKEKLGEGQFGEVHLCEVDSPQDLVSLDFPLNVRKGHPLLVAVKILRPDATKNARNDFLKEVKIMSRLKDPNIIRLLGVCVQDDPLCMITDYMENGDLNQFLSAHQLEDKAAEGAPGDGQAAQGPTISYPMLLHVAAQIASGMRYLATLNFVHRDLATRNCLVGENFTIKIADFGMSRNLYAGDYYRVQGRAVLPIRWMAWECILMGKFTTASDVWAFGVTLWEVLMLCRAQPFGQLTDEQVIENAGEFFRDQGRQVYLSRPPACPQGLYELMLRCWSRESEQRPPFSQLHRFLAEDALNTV
Description: Cells treated with 200 nM of 2.45-IN [2-(4-Bromo-2-oxo-1′-(1H-pyrazolo[4,3-b]pyridine-5-carbonyl)spiro[indoline-3,4′-piperidin]-1-yl)-N-(2,2,2-trifluoroethyl) acetamide] were used as positive control for inhibition of DDR1 phosphorylation. Cell lysate was then analyzed via Jess immunoassay (ProteinSimple).
Serum-starved T47D cells were pretreated for two hours with increasing concentrations of monoclonal antibody or IgG control, followed by stimulation with 50 μg/ml of human collagen I for 90 minutes.

B1: #33 inert IgG1: rabbit mAb #33 heavy and light chain variable domains fused to human IgG1 constant domains; SEQ ID NOs: 23 and 24 (protein)
chain 1: ELVMTQTPASVEAAVGGTVTIKCQASETISSRLAWYQQKPGQPPKLLIYQASKLPSGVPSRFKGTGSGTEYTLTISDLECADAATYYCQGCYYGGGSFYDSAFGGGTEVVVKRTVAAPSVFIFPPSDEQLKSGTASVVCLLNNFYPREAKVQWKVDNALQSGNSQESVTEQDSKDSTYSLSSTLTLSKADYEKHKVYACEVTHQGLSSPVTKSFNRGEC
chain 2: QSVEESGGRLVTPGGSLTLTCTVSGFSLSSYDMSWVRQAPGKGLEWIGISWNSGFVDYASWAKGRFSISKTSTTVDLKITSPTTEDTATYFCARLGADDIYYFNLWGPGTLVTISSASTKGPSVFPLAPSSKSTSGGTAALGCLVKDYFPEPVTVSWNSGALTSGVHTFPAVLQSSGLYSLSSVVTVPSSSLGTQTYICNVNHKPSNTKVDKRVEPKSCDKTHTCPPCPAPEAEGAPSVFLFPPKPKDTLMISRTPEVTCVVVDVSHEDPEVKFNWYVDGVEVHNAKTKPREEQYNSTYRVVSVLTVLHQDWLNGKEYKCKVSNKALPSSIEKTISKAKGQPREPQVYTLPPSREEMTKNQVSLTCLVKGFYPSDIAVEWESNGQPENNYKTTPPVLDSDGSFFLYSKLTVDKSRWQQGNVFSCSVMHEALHNHYTQKSLSLSPGK
**Q.** Which “exposure over 168 hours (in words)” value [1] does the source give for B1 here?
**A.** The value was “comparable to expected exposures for IgG1”.

**Q.** What about the tmax [1] of the same molecule?
**A.** The tmax was 48 h.

**Q.** And the Cmax [1]?
**A.** The Cmax was 131.82 µg/mL.

**Q.** What about the Cmax ([1]; read-out: Cmax) of the same molecule?
**A.** Its Cmax is 650 nM.

B2: rabbit mAb #33: rabbit anti-DDR1 monoclonal antibody, light chain SEQ ID NO: 164, heavy chain SEQ ID NO: 165 (antibody)
heavy: QSVEESGGRLVTPGGSLTLTCTVSGFSLSSYDMSWVRQAPGKGLEWIGISWNSGFVDYASWAKGRFSISKTSTTVDLKITSPTTEDTATYFCARLGADDIYYFNLWGPGTLVTISSGQPKAPSVFPLAPCCGDTPSSTVTLGCLVKGYLPEPVTVTWNSGTLTNGVRTFPSVRQSSGLYSLSSVVSVTSSSQPVTCNVAHPATNTKVDKTVAPSTCSKPTCPPPELLGGPSVFIFPPKPKDTLMISRTPEVTCVVVDVSQDDPEVQFTWYINNEQVRTARPPLREQQFNSTIRVVSTLPIAHQDWLRGKEFKCKVHNKALPAPIEKTISKARGQPLEPKVYTMGPPREELSSRSVSLTCMINGFYPSDISVEWEKNGKAEDNYKTTPAVLDSDGSYFLYSKLSVPTSEWQRGDVFTCSVMHEALHNHYTQKSISRSPGK
light: ELVMTQTPASVEAAVGGTVTIKCQASETISSRLAWYQQKPGQPPKLLIYQASKLPSGVPSRFKGTGSGTEYTLTISDLECADAATYYCQGCYYGGGSFYDSAFGGGTEVVVKGDPVAPTVLIFPPAADQVATGTVTIVCVANKYFPDVTVTWEVDGTTQTTGIENSKTPQNSADCTYNLSSTLTLTSTQYNSHKEYTCKVTQGTTSVVQSFNRGDC
**Q.** With B2 as the molecule, how does the “inhibition of collagen I-induced phosphorylation of DDR1 (in words)” value (DDR1) read?
**A.** The value was “able to inhibit”.

— patent publication US20250369982A1, “METHODS OF DETECTING DDR1 PHOSPHORYLATION” (IncendiaTherapeutics, Inc., priority 2022, published 2025)
